Data published in patent US20250152742A1, “COMPOSITIONS AND METHODS FOR NEUROLOGICAL DISEASES” (Trames Bio, Inc., priority 2022, published 2025).

Tested on: engineered chimeric receptor SEQ ID NO: 33 and its mutants (human α7-nAChR ligand binding domain / human GlyRα1 ion pore domain) in Lenti-X 293T cells
Assay: YFP fluorescence quenching anion reporter plate reader assay (percent quench, EC50)
Assay type: cell-based
Conditions: for YFP fluorescence quenching using CNL001 (percent quench): receptor named in row; for YFP fluorescence quenching using Varenicline, 3 nM var: ligand Varenicline 3 nM; for YFP fluorescence quenching using Varenicline, 30 nM var: ligand Varenicline 30 nM; for YFP fluorescence quenching using Varenicline, 300 nM var: ligand Varenicline 300 nM; for YFP fluorescence quenching using Varenicline, 500 nM var: ligand Varenicline 500 nM; for YFP fluorescence quenching using Varenicline, 1 uM var: ligand Varenicline 1 uM
In short: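 Percent quench compares mean YFP signal over the final 10 s with the 15 s baseline before ligand, added in iodide-containing extracellular solution (pH 7.2). Cells were LX293T carrying a YFP anion reporter, transiently transfected with the channel construct; plates were preincubated 30 min at 37 °C.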

[1] = 1 nM CNL001, first column so headed
[2] = 1 nM CNL001, second column so headed
[3] = 1 nM brd (TC-5619/Bradanicline)
[4] = 3 nM brd (TC-5619/Bradanicline)
[5] = 10 nM CNL001, first column so headed
[6] = 10 nM CNL001, second column so headed
[7] = 10 nM brd (TC-5619/Bradanicline)
[8] = 30 nM brd (TC-5619/Bradanicline)
[9] = 50 nM CNL001, first column so headed
[10] = 50 nM CNL001, second column so headed
[11] = 100 nM CNL001, first column so headed
[12] = 100 nM CNL001, second column so headed
[13] = 100 nM brd (TC-5619/Bradanicline)
[14] = 300 nM brd (TC-5619/Bradanicline)
[15] = 1 uM CNL001, first column so headed
[16] = 1 uM CNL001, second column so headed

B1: CODA1048: engineered receptor: R101F, Y210F in SEQ ID NO: 33 (protein)
chain: MRCSPGGVWLALAASLLHVSLQGEFQRKLYKELVKNYNPLERPVANDSQPLTVYFSLSLLQIMDVDEKNQVLTTNIWLQMSWTDHYLQWNVSEYPGVKTVFFPDGQIWKPDILLYNSADERFDATFHTNVLVNSSGHCQYLPPGIFKSSCPMDLKNFPMDVQTCKLKFGSWSYGGWSLDLQMQEADISGYIPNGEWDLVGIPGKRSERFFECCKEPYPDVTFTVTMRRRMGYYLIQMYIPSLLIVILSWISFWINMDAAPARVGLGITTVLTMTTQSSGSRASLPKVSYVKAIDIWMAVCLLFVFSALLEYAAVNFVSRQHKELLRFRRKRRHHKSPMLNLFQEDEAGEGRFNFSAYGMGPACLQAKDGISVKGANNSNTTNPPPAPSKSPEEMRKLFIQRAKKIDKISRIGFPMAFLIFNMFYWIIYKIVRREDVHNQ
modifications: synthetic sequence of chimeric LGIC
YFP fluorescence quenching using CNL001 (percent quench) [1]: 9.114% | YFP fluorescence quenching using CNL001 (percent quench) [2]: 0.845% | YFP fluorescence quenching using TC-5619/Bradanicline (percent quench) [3]: −2.084% | YFP fluorescence quenching using TC-5619/Bradanicline (percent quench) [4]: −9.098% | YFP fluorescence quenching using CNL001 (percent quench) [5]: 28.944% | YFP fluorescence quenching using CNL001 (percent quench) [6]: 53.629% | YFP fluorescence quenching using TC-5619/Bradanicline (percent quench) [7]: −2.587% | YFP fluorescence quenching using TC-6683 (percent quench) (30 nM TC-6683): −29.055% | YFP fluorescence quenching using TC-5619/Bradanicline (percent quench) [8]: 55.818% | YFP fluorescence quenching using CNL001 (percent quench) [9]: 68.581% | YFP fluorescence quenching using CNL001 (percent quench) [10]: 74.379% | YFP fluorescence quenching using ABT-126 (percent quench) (50 nM abt (ABT-126)): −23.28% | YFP fluorescence quenching using CNL001 (percent quench) [11]: 80.541% | YFP fluorescence quenching using CNL001 (percent quench) [12]: 80.774% | YFP fluorescence quenching using ABT-126 (percent quench) (100 nM abt (ABT-126)): −21.78% | YFP fluorescence quenching using TC-5619/Bradanicline (percent quench) [13]: 76.957% | YFP fluorescence quenching using TC-6683 (percent quench) (300 nM TC-6683): −33.935% | YFP fluorescence quenching using ABT-126 (percent quench) (300 nM abt (ABT-126)): −19.35% | YFP fluorescence quenching using TC-5619/Bradanicline (percent quench) [14]: 74.268% | YFP fluorescence quenching using CNL001 (percent quench) [15]: 83.143% | YFP fluorescence quenching using CNL001 (percent quench) [16]: 81.751% | YFP fluorescence quenching using ABT-126 (percent quench) (1 uM abt (ABT-126)): −16.33% | YFP fluorescence quenching using TC-6683 (percent quench) (3 uM TC-6683): −24.613% | YFP fluorescence quenching using TC-6683 (percent quench) (30 uM TC-6683): −21.752% | YFP fluorescence quenching using TC-6683 (percent quench) (100 uM TC-6683): −22.815% | YFP fluorescence quenching (percent quench) (100 uM ach (acetylcholine)): −17.31% | YFP fluorescence quenching (percent quench) (300 uM ach (acetylcholine)): −13.7% | YFP fluorescence quenching (percent quench) (500 uM ach (acetylcholine)): −10.1% | YFP fluorescence quenching (percent quench) (1 mM ach (acetylcholine)): 5.53% | YFP fluorescence quenching (percent quench) (3 mM ach (acetylcholine)): 68.61% | YFP fluorescence quenching (percent quench) (10 mM ach (acetylcholine)): 78.22% | YFP fluorescence quenching using Varenicline, 3 nM var (first column): −17.119 | YFP fluorescence quenching using Varenicline, 3 nM var (second column): −13.234 | YFP fluorescence quenching using Varenicline, 30 nM var (first column): −7.747 | YFP fluorescence quenching using Varenicline, 30 nM var (second column): 4.193 | YFP fluorescence quenching using Varenicline, 300 nM var (first column): 4.149 | YFP fluorescence quenching using Varenicline, 300 nM var (second column): 1.512 | YFP fluorescence quenching using Varenicline, 500 nM var (first column): −1.572 | YFP fluorescence quenching using Varenicline, 500 nM var (second column): 3.71 | YFP fluorescence quenching using Varenicline, 1 uM var (first column): 8.414 | YFP fluorescence quenching using Varenicline, 1 uM var (second column): 4.091

B2: COAD1056 (protein)
chain: MRCSPGGVWLALAASLLHVSLQGEFQRKLYKELVKNYNPLERPVANDSQPLTVYFSLSLLQIMDVDEKNQVLTTNIWLQMSWTDHYLQWNVSEYPGVKTVFFPDGQIWKPDILLENSADERFDATFHTNVLVNSSGHCQYLPPGIFKSSCPMDLKNFPMDVQTCKLKFGSWSYGGWSLDLQMQEADISGYIPNGEWDLVGIPGKRSERFWECCKEPYPDVTFTVTMRRRMGYYLIQMYIPSLLIVILSWISFWINMDAAPARVGLGITTVLTMTTQSSGSRASLPKVSYVKAIDIWMAVCLLFVFSALLEYAAVNFVSRQHKELLRFRRKRRHHKSPMLNLFQEDEAGEGRFNFSAYGMGPACLQAKDGISVKGANNSNTTNPPPAPSKSPEEMRKLFIQRAKKIDKISRIGFPMAFLIFNMFYWIIYKIVRREDVHNQ
modifications: synthetic sequence of chimeric LGIC
EC50 (ligand TC-5619, YFP plate reader): 25.1 nM

B3: CODA1054: engineered receptor: R101M, L131F in SEQ ID NO: 33 (protein)
chain: MRCSPGGVWLALAASLLHVSLQGEFQRKLYKELVKNYNPLERPVANDSQPLTVYFSLSLLQIMDVDEKNQVLTTNIWLQMSWTDHYLQWNVSEYPGVKTVMFPDGQIWKPDILLYNSADERFDATFHTNVFVNSSGHCQYLPPGIFKSSCPMDLKNFPMDVQTCKLKFGSWSYGGWSLDLQMQEADISGYIPNGEWDLVGIPGKRSERFYECCKEPYPDVTFTVTMRRRMGYYLIQMYIPSLLIVILSWISFWINMDAAPARVGLGITTVLTMTTQSSGSRASLPKVSYVKAIDIWMAVCLLFVFSALLEYAAVNFVSRQHKELLRFRRKRRHHKSPMLNLFQEDEAGEGRFNFSAYGMGPACLQAKDGISVKGANNSNTTNPPPAPSKSPEEMRKLFIQRAKKIDKISRIGFPMAFLIFNMFYWIIYKIVRREDVHNQ
modifications: synthetic sequence of chimeric LGIC
YFP fluorescence quenching using CNL001 (percent quench) [1]: 21.932% | YFP fluorescence quenching using CNL001 (percent quench) [2]: 39.689% | YFP fluorescence quenching using TC-5619/Bradanicline (percent quench) [3]: 6.609% | YFP fluorescence quenching using TC-5619/Bradanicline (percent quench) [4]: −7.635% | YFP fluorescence quenching using CNL001 (percent quench) [5]: 54.192% | YFP fluorescence quenching using CNL001 (percent quench) [6]: 64.111% | YFP fluorescence quenching using TC-5619/Bradanicline (percent quench) [7]: 4.459% | YFP fluorescence quenching using TC-6683 (percent quench) (30 nM TC-6683): −22.996% | YFP fluorescence quenching using TC-5619/Bradanicline (percent quench) [8]: 69.782% | YFP fluorescence quenching using CNL001 (percent quench) [9]: 71.409% | YFP fluorescence quenching using CNL001 (percent quench) [10]: 70.989% | YFP fluorescence quenching using ABT-126 (percent quench) (50 nM abt (ABT-126)): −19.54% | YFP fluorescence quenching using CNL001 (percent quench) [11]: 74.148% | YFP fluorescence quenching using CNL001 (percent quench) [12]: 71.722% | YFP fluorescence quenching using ABT-126 (percent quench) (100 nM abt (ABT-126)): −18.28% | YFP fluorescence quenching using TC-5619/Bradanicline (percent quench) [13]: 77.633% | YFP fluorescence quenching using TC-6683 (percent quench) (300 nM TC-6683): −27.055% | YFP fluorescence quenching using ABT-126 (percent quench) (300 nM abt (ABT-126)): −16.87% | YFP fluorescence quenching using TC-5619/Bradanicline (percent quench) [14]: 72.933% | YFP fluorescence quenching using CNL001 (percent quench) [15]: 71.378% | YFP fluorescence quenching using CNL001 (percent quench) [16]: 71.411% | YFP fluorescence quenching using ABT-126 (percent quench) (1 uM abt (ABT-126)): −11.77% | YFP fluorescence quenching using TC-6683 (percent quench) (3 uM TC-6683): −18.611% | YFP fluorescence quenching (percent quench) (10 uM ach (acetylcholine)): −3.98% | YFP fluorescence quenching using TC-6683 (percent quench) (30 uM TC-6683): −13.879% | YFP fluorescence quenching using TC-6683 (percent quench) (100 uM TC-6683): −21.521% | YFP fluorescence quenching (percent quench) (100 uM ach (acetylcholine)): −10.34% | YFP fluorescence quenching (percent quench) (300 uM ach (acetylcholine)): −10.25% | YFP fluorescence quenching (percent quench) (500 uM ach (acetylcholine)): −11.46% | YFP fluorescence quenching (percent quench) (1 mM ach (acetylcholine)): 1.77% | YFP fluorescence quenching (percent quench) (3 mM ach (acetylcholine)): 36.81% | YFP fluorescence quenching (percent quench) (10 mM ach (acetylcholine)): 74.02% | YFP fluorescence quenching using Varenicline, 3 nM var (first column): 34.923 | YFP fluorescence quenching using Varenicline, 3 nM var (second column): 28.944 | YFP fluorescence quenching using Varenicline, 30 nM var (first column): 42.214 | YFP fluorescence quenching using Varenicline, 30 nM var (second column): 43.015 | YFP fluorescence quenching using Varenicline, 300 nM var (first column): 47.059 | YFP fluorescence quenching using Varenicline, 300 nM var (second column): 52.768 | YFP fluorescence quenching using Varenicline, 500 nM var (first column): 59.542 | YFP fluorescence quenching using Varenicline, 500 nM var (second column): 62.641 | YFP fluorescence quenching using Varenicline, 1 uM var (first column): 71.449 | YFP fluorescence quenching using Varenicline, 1 uM var (second column): 69.145
